Experimental findings from patent US20220348894, “DNA MODIFYING ENZYMES AND ACTIVE FRAGMENTS AND VARIANTS THEREOF AND METHODS OF USE” (LifeEDIT Therapeutics, Inc., published 2022) are described below.

In series [1] the target is T1, APG07433.1 (Bacillus sp.).
T1 chain: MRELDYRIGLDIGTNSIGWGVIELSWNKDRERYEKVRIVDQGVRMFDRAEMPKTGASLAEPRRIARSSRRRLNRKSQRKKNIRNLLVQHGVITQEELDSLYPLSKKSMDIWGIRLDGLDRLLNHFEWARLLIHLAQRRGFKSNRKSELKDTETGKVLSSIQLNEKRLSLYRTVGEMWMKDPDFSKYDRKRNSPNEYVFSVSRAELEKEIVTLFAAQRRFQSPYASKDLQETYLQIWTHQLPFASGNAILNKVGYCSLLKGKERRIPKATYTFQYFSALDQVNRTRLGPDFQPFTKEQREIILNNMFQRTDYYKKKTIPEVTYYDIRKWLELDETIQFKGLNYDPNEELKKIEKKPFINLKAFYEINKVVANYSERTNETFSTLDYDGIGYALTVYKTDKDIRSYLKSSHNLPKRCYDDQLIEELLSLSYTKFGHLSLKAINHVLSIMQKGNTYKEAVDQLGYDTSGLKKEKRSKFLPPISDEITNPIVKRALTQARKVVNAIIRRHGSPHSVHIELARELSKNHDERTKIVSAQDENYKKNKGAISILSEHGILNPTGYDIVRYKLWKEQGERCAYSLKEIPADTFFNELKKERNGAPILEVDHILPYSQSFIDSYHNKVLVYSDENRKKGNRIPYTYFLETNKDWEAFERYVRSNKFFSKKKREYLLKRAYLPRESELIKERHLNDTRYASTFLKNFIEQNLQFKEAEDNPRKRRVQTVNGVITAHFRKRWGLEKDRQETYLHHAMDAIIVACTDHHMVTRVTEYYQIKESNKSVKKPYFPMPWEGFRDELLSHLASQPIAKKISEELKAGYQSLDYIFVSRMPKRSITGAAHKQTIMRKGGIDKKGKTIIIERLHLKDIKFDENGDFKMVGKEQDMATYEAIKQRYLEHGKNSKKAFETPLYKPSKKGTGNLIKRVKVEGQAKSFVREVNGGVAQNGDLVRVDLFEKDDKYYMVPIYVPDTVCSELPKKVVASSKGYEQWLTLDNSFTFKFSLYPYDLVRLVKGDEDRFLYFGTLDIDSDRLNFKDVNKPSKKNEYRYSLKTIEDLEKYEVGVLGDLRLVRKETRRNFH
The experiment in a line: cell_activity; editing rate HEK293T; PAM 3' of target. The source says: (§1) Through alignment with closely related homologs, a unique 8 amino acid region at positions 590-597 was identified in APG07433.1 and its close homolog APG08290.1 (described in WO 2019/236566 and set forth herein as SEQ ID NO: 60). This region, set forth as SEQ ID NO: 365 for APG07433.1 and SEQ ID NO: 367 for APG08290.1, was removed from both proteins, resulting in variant RGNs APG07433.1-del (SEQ ID NO: 366) and APG08290.1-del (SEQ ID NO: 368). These deletion variants and their corresponding wild-type RGNs were assayed for editing activity in HEK293T cells using the guide RNAs indicated in Tables 32 and 33 following methods similar to those described in Example 1.

The target in series [2] is T2, APG07433.1-del (residues 590-597 deleted).
T2 chain: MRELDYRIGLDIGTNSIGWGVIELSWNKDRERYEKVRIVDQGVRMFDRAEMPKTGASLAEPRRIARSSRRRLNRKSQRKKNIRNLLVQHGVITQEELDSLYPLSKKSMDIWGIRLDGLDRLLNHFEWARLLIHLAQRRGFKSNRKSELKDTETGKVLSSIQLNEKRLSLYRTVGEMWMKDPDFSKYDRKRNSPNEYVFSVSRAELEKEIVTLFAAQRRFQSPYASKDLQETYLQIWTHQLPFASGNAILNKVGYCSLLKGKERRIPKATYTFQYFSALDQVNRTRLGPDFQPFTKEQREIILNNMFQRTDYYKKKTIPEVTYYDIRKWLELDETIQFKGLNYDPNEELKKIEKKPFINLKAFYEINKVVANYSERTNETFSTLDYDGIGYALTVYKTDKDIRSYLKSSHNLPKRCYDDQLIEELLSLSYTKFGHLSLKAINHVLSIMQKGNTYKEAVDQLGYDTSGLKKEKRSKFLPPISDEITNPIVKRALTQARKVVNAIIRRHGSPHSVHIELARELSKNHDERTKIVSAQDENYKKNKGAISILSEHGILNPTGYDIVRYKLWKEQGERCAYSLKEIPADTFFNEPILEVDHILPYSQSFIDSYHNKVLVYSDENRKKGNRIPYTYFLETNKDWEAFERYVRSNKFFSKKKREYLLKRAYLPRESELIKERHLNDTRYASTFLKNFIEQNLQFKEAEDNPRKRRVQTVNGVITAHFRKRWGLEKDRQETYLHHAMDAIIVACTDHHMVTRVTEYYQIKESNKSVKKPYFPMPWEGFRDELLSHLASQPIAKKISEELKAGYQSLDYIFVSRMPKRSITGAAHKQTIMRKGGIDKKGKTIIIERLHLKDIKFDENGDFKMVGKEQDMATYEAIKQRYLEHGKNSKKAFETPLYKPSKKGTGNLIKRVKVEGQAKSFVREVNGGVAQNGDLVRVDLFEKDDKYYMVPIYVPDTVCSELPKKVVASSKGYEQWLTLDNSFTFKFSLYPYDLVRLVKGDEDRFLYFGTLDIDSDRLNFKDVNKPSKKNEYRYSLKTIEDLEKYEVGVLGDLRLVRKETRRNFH
Described as above.
Description: as §1

Series [3] addresses T3, APG08290.1 (Bacillus sp.).
T3 chain: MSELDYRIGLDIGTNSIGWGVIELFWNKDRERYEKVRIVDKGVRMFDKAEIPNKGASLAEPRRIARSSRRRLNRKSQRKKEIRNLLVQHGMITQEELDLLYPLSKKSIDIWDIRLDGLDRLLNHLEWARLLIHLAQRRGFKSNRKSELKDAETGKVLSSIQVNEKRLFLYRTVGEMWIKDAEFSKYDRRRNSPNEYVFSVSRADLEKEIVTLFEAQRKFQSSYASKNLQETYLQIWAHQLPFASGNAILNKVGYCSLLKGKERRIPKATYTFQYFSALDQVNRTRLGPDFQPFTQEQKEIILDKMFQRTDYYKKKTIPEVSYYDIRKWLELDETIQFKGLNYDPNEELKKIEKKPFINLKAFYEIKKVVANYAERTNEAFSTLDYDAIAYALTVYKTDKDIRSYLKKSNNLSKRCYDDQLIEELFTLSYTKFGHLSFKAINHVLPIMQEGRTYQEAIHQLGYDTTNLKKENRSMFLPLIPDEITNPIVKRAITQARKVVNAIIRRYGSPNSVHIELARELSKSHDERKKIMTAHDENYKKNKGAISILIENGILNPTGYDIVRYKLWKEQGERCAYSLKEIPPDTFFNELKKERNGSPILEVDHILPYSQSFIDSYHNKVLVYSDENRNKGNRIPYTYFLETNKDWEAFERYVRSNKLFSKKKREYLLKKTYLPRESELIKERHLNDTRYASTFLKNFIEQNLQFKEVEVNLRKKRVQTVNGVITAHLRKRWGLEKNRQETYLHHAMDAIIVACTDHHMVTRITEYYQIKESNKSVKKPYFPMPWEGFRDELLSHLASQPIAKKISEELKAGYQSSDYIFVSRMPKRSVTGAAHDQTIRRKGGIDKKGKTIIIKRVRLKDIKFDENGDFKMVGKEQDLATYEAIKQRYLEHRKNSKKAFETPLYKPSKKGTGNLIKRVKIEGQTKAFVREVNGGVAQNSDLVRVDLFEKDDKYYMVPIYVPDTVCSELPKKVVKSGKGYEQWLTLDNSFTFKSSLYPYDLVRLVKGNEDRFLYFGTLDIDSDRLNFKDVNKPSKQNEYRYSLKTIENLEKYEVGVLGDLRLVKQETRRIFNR
Briefly: cell_activity; editing rate HEK293T; PAM not stated.
Description: as §1

In series [4] the target is T4, APG08290.1-del.
T4 chain: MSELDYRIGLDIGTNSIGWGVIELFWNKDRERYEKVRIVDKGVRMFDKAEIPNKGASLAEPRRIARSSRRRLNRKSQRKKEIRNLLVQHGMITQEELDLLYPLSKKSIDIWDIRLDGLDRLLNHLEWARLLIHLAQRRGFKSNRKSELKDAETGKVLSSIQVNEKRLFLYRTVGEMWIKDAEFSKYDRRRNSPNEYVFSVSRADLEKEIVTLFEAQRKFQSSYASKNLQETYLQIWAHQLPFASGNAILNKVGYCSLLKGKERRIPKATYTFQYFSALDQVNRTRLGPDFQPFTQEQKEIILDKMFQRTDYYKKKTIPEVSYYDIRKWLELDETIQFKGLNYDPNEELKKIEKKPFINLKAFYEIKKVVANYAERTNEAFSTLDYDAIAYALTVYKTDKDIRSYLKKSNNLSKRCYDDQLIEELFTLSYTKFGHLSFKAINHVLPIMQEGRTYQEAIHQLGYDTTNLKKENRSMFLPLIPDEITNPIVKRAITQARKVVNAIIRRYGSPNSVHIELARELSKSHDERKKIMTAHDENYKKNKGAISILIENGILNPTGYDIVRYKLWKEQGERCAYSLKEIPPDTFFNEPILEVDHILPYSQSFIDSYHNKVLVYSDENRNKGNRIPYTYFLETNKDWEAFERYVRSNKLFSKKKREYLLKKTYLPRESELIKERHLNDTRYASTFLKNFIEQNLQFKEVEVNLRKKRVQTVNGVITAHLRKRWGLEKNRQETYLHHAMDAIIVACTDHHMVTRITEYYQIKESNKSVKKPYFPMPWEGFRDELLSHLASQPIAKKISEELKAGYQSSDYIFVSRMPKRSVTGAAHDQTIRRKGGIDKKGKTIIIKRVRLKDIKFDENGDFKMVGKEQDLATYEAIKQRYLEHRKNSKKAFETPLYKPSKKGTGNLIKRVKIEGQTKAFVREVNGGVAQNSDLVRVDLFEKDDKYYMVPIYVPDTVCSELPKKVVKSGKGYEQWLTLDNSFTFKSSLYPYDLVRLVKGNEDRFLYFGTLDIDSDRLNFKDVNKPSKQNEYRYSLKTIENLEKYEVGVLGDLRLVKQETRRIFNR
The description is as above.
Description: as §1

B1: SGN000139 sgRNA (Table 32) ; SGN000139 target (Table 32) (ssRNA ; dsDNA)
RNA: AGGUUUUAAUGGCCCAGCCUGUCAUAGUUCCAUUAAAGCCAAAAGUGGCUUUGAUGUUUCUAUGAUAAGGGUUUCGACCCGUGGCGUCGGGGAUCGCCUGCCCAUUGAAAUGGGCUUCUCCCCAUUUAUU
DNA 1: AGGTTTTAATGGCCCAGCCT
DNA 2: AGGCTGGGCCATTAAAACCT
In the case of B1, in series [1], the activity was determined as 11.1%.

B2: SGN000186 sgRNA (Table 32) ; SGN000186 target (Table 32) (ssRNA ; dsDNA)
RNA: GGACAGUGCGCAUCUCCCUGGUCAUAGUUCCAUUAAAGCCAAAAGUGGCUUUGAUGUUUCUAUGAUAAGGGUUUCGACCCGUGGCGUCGGGGAUCGCCUGCCCAUUGAAAUGGGCUUCUCCCCAUUUAUU
DNA 1: GGACAGTGCGCATCTCCCTG
DNA 2: CAGGGAGATGCGCACTGTCC
With B2, the activity in series [2] stood at 15.2%.

B3: SGN000169 sgRNA ; SGN000169 target (ssRNA ; dsDNA)
RNA: CACAUCUCGAGCAAGACGUUGUCAUAGUUCCAUUAAAGCCAAAAGUGGCUUUGAUGUUUCUAUGAUAAGGGUUUCGACCCGUGGCGUCGGGGAUCGCCUGCCCAUUGAAAUGGGCUUCUCCCCAUUUAUU
DNA 1: CACATCTCGAGCAAGACGTT
DNA 2: AACGTCTTGCTCGAGATGTG
For B3, the activity in series [1] is 13.4%; in series [2] it was 15.5%.

B4: SGN000929 sgRNA ; SGN000929 target (ssRNA ; dsDNA)
RNA: AUCUGGAGGGAACUUACAGCAUAUGGUCAUAGUUCCAUGAAAGCCAAAAGUGGCUUUGAUGUUUCUAUGAUAAGGGUUUCGGCCCGUGGCGUCGGGGAUCGCCUGCCCAUUCCGAUGGGCUUCUCCCCAUUUAUU
DNA 1: ATCTGGAGGGAACTTACAGCATATG
DNA 2: CATATGCTGTAAGTTCCCTCCAGAT
For B4, the activity in series [3] amounted to 1.83%; in series [4], 0.61%.

B5: SGN000930 sgRNA (Table 33) ; SGN000930 target (Table 33) (ssRNA ; dsDNA)
RNA: GAACAACUCAAAUGGAAAUGAAUAUGUCAUAGUUCCAUGAAAGCCAAAAGUGGCUUUGAUGUUUCUAUGAUAAGGGUUUCGGCCCGUGGCGUCGGGGAUCGCCUGCCCAUUCCGAUGGGCUUCUCCCCAUUUAUU
DNA 1: GAACAACTCAAATGGAAATGAATAT
DNA 2: ATATTCATTTCCATTTGAGTTGTTC
Turning to B5, the activity in series [3] is 9.93%; in series [4], 6.47%.
